# Results from patent US8367124B2, “Lymphatic vessel stabilizer” (Shiseido Company, Ltd., priority 2008, dated 2013).
# B1: angiopoietin 1 (protein, UniProt O08538 20-498, looked up)
# Angiopoietin-1: SNQRRNPENGGRRYNRIQHGQCAYTFILPEHDGNCRESATEQYNTNALQRDAPHVEPDFSSQKLQHLEHVMENYTQWLQKLENYIVENMKSEMAQIQQNAVQNHTATMLEIGTSLLSQTAEQTRKLTDVETQVLNQTSRLEIQLLENSLSTYKLEKQLLQQTNEILKIHEKNSLLEHKILEMEGKHKEELDTLKEEKENLQGLVSRQTFIIQELEKQLSRATNNNSILQKQQLELMDTVHNLISLCTKEGVLLKGGKREEEKPFRDCADVYQAGFNKSGIYTIYFNNMPEPKKVFCNMDVNGGGWTVIQHREDGSLDFQRGWKEYKMGFGNPSGEYWLGNEFIFAITSQRQYMLRIELMDWEGNRAYSQYDRFHIGNEKQNYRLYLKGHTGTAGKQSSLILHGADFSTKDADNDNCMCKCALMLTGGWWFDACGPSNLNGMFYTAGQNHGKLNGIKWHYFKGPSYSLRSTTMMIRPLDF
# modifications: adenovirus-expressed
# notes: mouse-derived Ang-1 gene expressed from AdenoX adenovirus vector in vivo
# What was measured:
# Tie2 = biological target: T1, Tie2 (Homo sapiens, UniProt Q02763); test: Western blotting of lymphatic endothelial cells (Tie2 phosphorylation); format: cell-based; settings: Western blot of Tie2 and phosphorylated Tie2, DMSO control, compared with Ang-1
# T1 construct: endogenous in cells; host or cells: primary human lymphatic endothelial cells from infant foreskin
# Description: Lymphatic endothelial cells were isolated from human infant foreskin as CD31-positive, CD34-negative, CD45-negative cells (Non-Patent Document 6). The lymphatic endothelial cells were cultured in EBM-2 (Cambrex, Verviers, Belgium) supplemented with addition factors, and protein was extracted with Phosphosafe Extraction Reagent (Novagen, Madison, Wis.) in the presence of various drugs (Ang-1, cinnamon bark extract, Siberian Ginseng extract and syringaresinol). Cells supplemented with DMSO were prepared as a control.
# Furthermore, the cinnamon bark extract and syringaresinol were prepared in the manner indicated below. The Siberian Ginseng extract (Ask Intercity) was obtained by extracting Siberian Ginseng root with 30% ethanol. This extract was confirmed to contain 1.01% by weight syringaresinol by HPLC. This extract was then dissolved with DMSO for use as each test sample. The total amount of protein was determined with the RC DC Protein Assay Kit (BIO-RAD, Hercules, Calif.), and detected by Western blotting in the manner described below. An equal amount of total protein was subjected to SDS-PAGE using 7.5% acrylamide gel (NPU-7.5L, ATTO, Japan), and expression of Tie2 and phosphorylated Tie2 protein was confirmed by staining with an ECL Kit using […] (Santa Cruz Biotechnology, Santa Cruz, Calif.).
# lymphatic vessels = test: Lymph drainage assay (colloidal carbon injected into the auricle of mice infected with Ang-1 adenovirus); format: in vivo, mouse
# Description: The auricles of 8-week-old mice were infected with adenovirus (1×10^9 ifu/mouse), in which mouse-derived angiopoietin-1 (Ang-1) gene was incorporated into an AdenoX vector, with a Hamilton syringe (Hamilton, Reno. NV). Mice were also infected with adenovirus incorporating only AdenoX vector as a control. 1 μl of colloidal carbon solution (Kamei Co., Ltd., Japan) was injected into the tip of the auricle with a Hamilton syringe followed by analysis of time-based changes in the flow of lymph. […] In addition, a visual assessment of changes in lymphatic vessel recovery function was also carried out, and comparisons were made by scoring to one of levels (5: all ink remaining in lymphatic vessels, 1: all ink recovered and no longer present in lymphatic vessels), the results of which are shown in FIG. 1.
# In addition, after sacrificing the animals by anesthesia, the ears of the animals were simultaneously collected and crushed in liquid nitrogen followed by extraction of protein with Phosphosafe Extraction Reagent (Novagen, Madison, Wis.). The total amount of protein was determined with the RC DC Protein Assay Kit (BIO-RAD, Hercules, Calif.) and detected by Western blotting in the manner described below. […]
# T1 sequence (Q02763 23-1124): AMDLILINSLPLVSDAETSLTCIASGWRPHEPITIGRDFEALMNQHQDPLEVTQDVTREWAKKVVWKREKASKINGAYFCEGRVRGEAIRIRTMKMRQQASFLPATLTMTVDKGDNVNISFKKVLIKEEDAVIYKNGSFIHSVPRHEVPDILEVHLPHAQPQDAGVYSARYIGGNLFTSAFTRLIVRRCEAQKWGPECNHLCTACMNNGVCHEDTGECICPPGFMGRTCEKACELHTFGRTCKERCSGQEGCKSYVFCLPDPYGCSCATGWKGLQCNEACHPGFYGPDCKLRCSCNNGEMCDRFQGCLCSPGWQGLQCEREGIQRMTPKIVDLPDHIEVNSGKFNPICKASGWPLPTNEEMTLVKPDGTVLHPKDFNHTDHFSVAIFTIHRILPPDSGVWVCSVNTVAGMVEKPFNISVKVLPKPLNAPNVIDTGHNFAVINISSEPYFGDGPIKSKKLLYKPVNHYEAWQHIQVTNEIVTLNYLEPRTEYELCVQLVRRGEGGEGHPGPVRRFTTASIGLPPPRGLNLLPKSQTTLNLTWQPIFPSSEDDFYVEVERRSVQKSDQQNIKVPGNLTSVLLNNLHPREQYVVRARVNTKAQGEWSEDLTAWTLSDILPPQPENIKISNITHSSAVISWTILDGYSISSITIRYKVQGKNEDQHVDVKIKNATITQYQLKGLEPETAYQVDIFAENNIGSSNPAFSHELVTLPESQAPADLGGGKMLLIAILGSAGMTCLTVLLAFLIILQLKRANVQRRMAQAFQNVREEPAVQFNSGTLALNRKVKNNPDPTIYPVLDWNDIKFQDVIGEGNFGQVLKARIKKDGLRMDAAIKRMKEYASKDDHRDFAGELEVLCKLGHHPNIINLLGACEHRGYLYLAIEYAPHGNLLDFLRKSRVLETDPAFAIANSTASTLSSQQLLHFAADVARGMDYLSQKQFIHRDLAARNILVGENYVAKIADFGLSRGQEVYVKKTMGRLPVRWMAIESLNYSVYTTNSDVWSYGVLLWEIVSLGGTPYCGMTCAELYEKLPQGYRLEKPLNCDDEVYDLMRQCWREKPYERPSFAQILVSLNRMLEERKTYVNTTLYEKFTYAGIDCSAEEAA
Molecule,Tie2 phosphorylation (activation) (Tie2),"lymphatic vessel recovery function (time-based changes in the flow of lymph) (lymphatic vessels; ears of mice highly expressing Ang1 via adenovirus, 1 μl colloidal carbon into tip of auricle, vs AdenoX vector control, data not shown)","lymphatic vessel recovery function, visual assessment score (5: all ink remaining, 1: all ink recovered) (lymphatic vessels; mouse auricle, Ang-1 adenovirus vs AdenoX vector control, FIG. 1)"
"COc1cc(C2OCC3C(c4cc(OC)c(O)c(OC)c4)OCC23)cc(OC)c1O (stereo not drawn) [syringaresinol, Syringaresinol]",confirmed to activate Tie2 in the same manner as Ang-1,,
B1,,promoted,remarkable promotion of lymphatic vessel recovery function
